Source: patent publication US20140256626A1 (priority 2011, published 2014)
Read-outs that look alike come from different tables or passages of the source.

Columns and labels:
[1] = rat, in vivo, iv
Protocol: The solution was administered by i.v. injection to cannulated male Sprague Dawley rats at 100 μL/100 g body weight. A single animal was used for a complete time course, repeated in duplicate.
Rat serum samples were thawed on ice, and 200 μL was adjusted to pH ˜5.5 by addition of 5 μL of 2M acetic acid.
Proteins were precipitated from 50 μL of acidified rat serum by addition of 150 μL of cold MeOH containing 40 μg/mL Fmoc-Lys (DNP)OH as an internal standard for volume deviations. The samples were kept on ice for 2 hours and centrifuged at 14,000 rpm for 10 min at 4° C. The supernatant was analyzed on a Shimadzu™ HPLC with a Phenomenex® Jupiter® C18 300A 5 μm column (4.6×150 mm) at 40° C. The mobile phase consisted of H2O/0.1% TFA (Buffer A) and ACN/0.1% TFA (Buffer B) at 1 mL/min. […] Quantitation was performed by comparison of peak areas to standard solutions of mPEG-coumarin after MeOH precipitation in rat serum (Sigma-Aldrich) as above. Any volume deviations were corrected using the peak area of the Fmoc-Lys (DNP)OH internal standard in each sample.
Serum samples were treated with 2 volumes of acetonitrile (ACN) and centrifuged. The supernatant was dried, reconstituted in 1% formic acid and applied to HPLC (below). The sample was eluted by a water-ACN gradient containing 1% formic acid. […] HPLC-MS/MS analyses were carried out on a Sciex™ API-5500 mass spectrometer coupled with a Shimadzu™ HPLC system. The Shimadzu™ HPLC system consisted of two LC-30AD HPLC pumps and a SIL-30AC autosampler with a 100 μL loop installed. The chromatographic separations were achieved on a Jupiter® (Phenomenex®) 5 μm C18, 300 Å, HPLC column, 2.0×150 mm, with mobile phase gradients. The mass spectrometer was operated in positive ESI mode and the resolution setting used was unit for both Q1 and Q3. […] Peak-area integrations were performed using Analyst software (version 1.5.2) from AB Sciex™.

[2] = assay type: physicochemical; conditions: for t1/2 @ pH 7.4: buffer; for Rate of exenatide release: 50 μM conjugate
Protocol: Release rates were determined to be:

| Substance | Conjugate clearance rate [1] [h⁻¹] | Conjugate clearance t1/2 [1] [h] | Plasma half-life of the conjugate [1] [h] | t1/2 @ pH 7.4 [2] [h] | Rate of exenatide release ([2]; pH 9.5, 100 mM sodium borate) | Rate of exenatide release ([2]; pH 8.5, 100 mM bicine) |
| --- | --- | --- | --- | --- | --- | --- |
| Phenyl-SO2: DBCO-Lys(DEAC)-[GL4-400] 40 kDa PEG conjugated to N-[7-azido-1-(phenylsulfonyl)-2-heptyloxycarbonyl]-exenatide | 0.015 | 46 | 28 | 133 | .00726 h⁻¹ |  |
| 4-chlorophenyl-SO2: DBCO-Lys(DEAC)-[GL4-400] 40 kDa PEG conjugated to N-[7-azido-1-(4-chlorophenylsulfonyl)-2-heptyloxycarbonyl]-exenatide |  |  |  | 59 |  | .00248 h⁻¹ |
| CH3—SO2: DBCO-Lys(DEAC)-[GL4-400] 40 kDa PEG conjugated to N-[7-azido-1-(methylsulfonyl)-2-heptyloxycarbonyl]-exenatide |  |  |  | 483 | .00301 h⁻¹ |  |
